Article PMC8523659 (Scientific Reports, 2021)

Assays:
human serum albumin [1] = target: T1, human serum albumin (Homo sapiens, UniProt P02768); assay: SPR; Biacore T200; HSA immobilised on CM5 chip by amine coupling (~1000 RU); increasing concentrations of antibodies injected at 30 μl/min; PBS with 0.05% Tween-20; global fit, 1:1 Langmuir model; details: both partners purified
T1 construct: human serum albumin (HSA), purchased from Sigma-Aldrich Japan; dissolved in phosphate buffer and dialysed; also called HSA; source: bought: Sigma-Aldrich Japan

human serum albumin [2] = target: T1, human serum albumin; assay: as above; details: both partners purified; remark: listed apart in the source

| Binder | Kd (human serum albumin [1]) | koff (human serum albumin [1]) | kon (human serum albumin [1]) | Kd (human serum albumin [2]) |
| --- | --- | --- | --- | --- |
| Z18-T61L (VHH, IMGT numbering; the methods describe vector and expression for Z18 and Z26; source: E. coli BL21 (DE3), purified (Ni-NTA, SEC)) VHH: QVQLVESGGGLVQAGDSLRLSCAASGRTFSGYAMGWFRQAPGKEREFVARINWSGLLTYYADSVKGRFTGSRDNAKNTVYLQMNSLKPEDTAVYYCAQRGDSGSNYDPSGYSYWGQGTQVTVSS | 8.63 nM | 0.037 s⁻¹ | 4.33e+06 M⁻¹ s⁻¹ | – |
| Z18-S133R (VHH, IMGT numbering; the methods describe vector and expression for Z18 and Z26; source: E. coli BL21 (DE3), purified (Ni-NTA, SEC)) VHH: QVQLVESGGGLVQAGDSLRLSCAASGRTFSGYAMGWFRQAPGKEREFVARINWSGTLTYYADSVKGRFTGSRDNAKNTVYLQMNSLKPEDTAVYYCAQRGDSGSNYDPSGYRYWGQGTQVTVSS | 67.2 nM | 0.078 s⁻¹ | 1.16e+06 M⁻¹ s⁻¹ | – |
| Z18-V2L (VHH, IMGT numbering; the methods describe vector and expression for Z18 and Z26; source: E. coli BL21 (DE3), purified (Ni-NTA, SEC)) VHH: QLQLVESGGGLVQAGDSLRLSCAASGRTFSGYAMGWFRQAPGKEREFVARINWSGTLTYYADSVKGRFTGSRDNAKNTVYLQMNSLKPEDTAVYYCAQRGDSGSNYDPSGYSYWGQGTQVTVSS | 366 nM | 0.276 s⁻¹ | 754000 M⁻¹ s⁻¹ | – |
| Z18-R50L/G78A/S133R (VHH, IMGT numbering; the methods describe vector and expression for Z18 and Z26; source: E. coli BL21 (DE3), purified (Ni-NTA, SEC)) VHH: QVQLVESGGGLVQAGDSLRLSCAASGRTFSGYAMGWFRQAPGKELEFVARINWSGTLTYYADSVKGRFTASRDNAKNTVYLQMNSLKPEDTAVYYCAQRGDSGSNYDPSGYRYWGQGTQVTVSS | 447 nM | 0.785 s⁻¹ | 1.76e+06 M⁻¹ s⁻¹ | – |
| Z18-I56V (VHH, IMGT numbering; the methods describe vector and expression for Z18 and Z26; source: E. coli BL21 (DE3), purified (Ni-NTA, SEC)) VHH: QVQLVESGGGLVQAGDSLRLSCAASGRTFSGYAMGWFRQAPGKEREFVARVNWSGTLTYYADSVKGRFTGSRDNAKNTVYLQMNSLKPEDTAVYYCAQRGDSGSNYDPSGYSYWGQGTQVTVSS | 296 nM | 0.22 s⁻¹ | 741000 M⁻¹ s⁻¹ | – |
| Z18-G32D (VHH, IMGT numbering; the methods describe vector and expression for Z18 and Z26; source: E. coli BL21 (DE3), purified (Ni-NTA, SEC)) VHH: QVQLVESGGGLVQAGDSLRLSCAASGRTFSDYAMGWFRQAPGKEREFVARINWSGTLTYYADSVKGRFTGSRDNAKNTVYLQMNSLKPEDTAVYYCAQRGDSGSNYDPSGYSYWGQGTQVTVSS | 172 nM | 0.12 s⁻¹ | 696000 M⁻¹ s⁻¹ | – |

Continued by falling Kd (human serum albumin [1]), values first:

| Kd (human serum albumin [1]) | koff (human serum albumin [1]) | kon (human serum albumin [1]) | Kd (human serum albumin [2]) | Binder |
| --- | --- | --- | --- | --- |
| 7110 nM | 1.1 s⁻¹ | 155000 M⁻¹ s⁻¹ | – | Z18-G78A (VHH, IMGT numbering; the methods describe vector and expression for Z18 and Z26; source: E. coli BL21 (DE3), purified (Ni-NTA, SEC)) VHH: QVQLVESGGGLVQAGDSLRLSCAASGRTFSGYAMGWFRQAPGKEREFVARINWSGTLTYYADSVKGRFTASRDNAKNTVYLQMNSLKPEDTAVYYCAQRGDSGSNYDPSGYSYWGQGTQVTVSS |
| 797 nM | 0.412 s⁻¹ | 516000 M⁻¹ s⁻¹ | – | Z18-G32D/R50L/G78A/S133R (VHH, IMGT numbering; the methods describe vector and expression for Z18 and Z26; source: E. coli BL21 (DE3), purified (Ni-NTA, SEC)) VHH: QVQLVESGGGLVQAGDSLRLSCAASGRTFSDYAMGWFRQAPGKELEFVARINWSGTLTYYADSVKGRFTASRDNAKNTVYLQMNSLKPEDTAVYYCAQRGDSGSNYDPSGYRYWGQGTQVTVSS |
| 412 nM | 0.284 s⁻¹ | 689000 M⁻¹ s⁻¹ | – | Z18-R50L (VHH, IMGT numbering; the methods describe vector and expression for Z18 and Z26; source: E. coli BL21 (DE3), purified (Ni-NTA, SEC)) VHH: QVQLVESGGGLVQAGDSLRLSCAASGRTFSGYAMGWFRQAPGKELEFVARINWSGTLTYYADSVKGRFTGSRDNAKNTVYLQMNSLKPEDTAVYYCAQRGDSGSNYDPSGYSYWGQGTQVTVSS |
| 344 nM | 0.238 s⁻¹ | 692000 M⁻¹ s⁻¹ | – | Z18-N85S (VHH, IMGT numbering; the methods describe vector and expression for Z18 and Z26; source: E. coli BL21 (DE3), purified (Ni-NTA, SEC)) VHH: QVQLVESGGGLVQAGDSLRLSCAASGRTFSGYAMGWFRQAPGKEREFVARINWSGTLTYYADSVKGRFTGSRDNAKSTVYLQMNSLKPEDTAVYYCAQRGDSGSNYDPSGYSYWGQGTQVTVSS |
| 334 nM | 0.259 s⁻¹ | 774000 M⁻¹ s⁻¹ | 175 nM | single-domain VHH antibody Z18 (VHH, pRA2 vector with N-terminal pelB signal peptide; also called wild-type Z18; source: E. coli BL21 (DE3), purified (Ni-NTA, SEC); not shown: hexa-histidine, C-terminal, kept) VHH: QVQLVESGGGLVQAGDSLRLSCAASGRTFSGYAMGWFRQAPGKEREFVARINWSGTLTYYADSVKGRFTGSRDNAKNTVYLQMNSLKPEDTAVYYCAQRGDSGSNYDPSGYSYWGQGTQVTVSS |
| 12.9 nM | 0.096 s⁻¹ | 7.45e+06 M⁻¹ s⁻¹ | – | Z18-Y114F (VHH, IMGT numbering; the methods describe vector and expression for Z18 and Z26; source: E. coli BL21 (DE3), purified (Ni-NTA, SEC)) VHH: QVQLVESGGGLVQAGDSLRLSCAASGRTFSGYAMGWFRQAPGKEREFVARINWSGTLTYYADSVKGRFTGSRDNAKNTVYLQMNSLKPEDTAVYYCAQRGDSGSNFDPSGYSYWGQGTQVTVSS |
| 0.54 nM | 0.000816 s⁻¹ | 1.51e+06 M⁻¹ s⁻¹ | – | single-domain VHH antibody Z26 (VHH, differs from Z18 at nine residues; pRA2 vector with N-terminal pelB signal peptide; also called wild-type Z26; source: E. coli BL21 (DE3), purified (Ni-NTA, SEC); not shown: hexa-histidine, C-terminal, kept) VHH: QLQLVESGGGLVQAGDSLRLSCAASGRTFSDYAMGWFRQAPGKELEFVARVNWSGLLTYYADSVKGRFTASRDNAKSTVYLQMNSLKPEDTAVYYCAQRGDSGSNFDPSGYRYWGQGTQVTVSS |
